{
  "source": "patent US12168773B2",
  "about": "“Engineered phosphoenolpyruvate carboxylase enzymes” (The Regents of the University of California, priority 2019, dated 2024)",
  "key": {"[1]": {"target": "T1, Zea mays PPC1 (ZmPPC1, C4 PEPC) (Zea mays, UniProt P04711, A655V)", "T1 construct": "6xHis (N); made in house; host or cells: E. coli BL21 CodonPlus (pET22b)", "T1 sequence (P04711 whole entry A655V)": "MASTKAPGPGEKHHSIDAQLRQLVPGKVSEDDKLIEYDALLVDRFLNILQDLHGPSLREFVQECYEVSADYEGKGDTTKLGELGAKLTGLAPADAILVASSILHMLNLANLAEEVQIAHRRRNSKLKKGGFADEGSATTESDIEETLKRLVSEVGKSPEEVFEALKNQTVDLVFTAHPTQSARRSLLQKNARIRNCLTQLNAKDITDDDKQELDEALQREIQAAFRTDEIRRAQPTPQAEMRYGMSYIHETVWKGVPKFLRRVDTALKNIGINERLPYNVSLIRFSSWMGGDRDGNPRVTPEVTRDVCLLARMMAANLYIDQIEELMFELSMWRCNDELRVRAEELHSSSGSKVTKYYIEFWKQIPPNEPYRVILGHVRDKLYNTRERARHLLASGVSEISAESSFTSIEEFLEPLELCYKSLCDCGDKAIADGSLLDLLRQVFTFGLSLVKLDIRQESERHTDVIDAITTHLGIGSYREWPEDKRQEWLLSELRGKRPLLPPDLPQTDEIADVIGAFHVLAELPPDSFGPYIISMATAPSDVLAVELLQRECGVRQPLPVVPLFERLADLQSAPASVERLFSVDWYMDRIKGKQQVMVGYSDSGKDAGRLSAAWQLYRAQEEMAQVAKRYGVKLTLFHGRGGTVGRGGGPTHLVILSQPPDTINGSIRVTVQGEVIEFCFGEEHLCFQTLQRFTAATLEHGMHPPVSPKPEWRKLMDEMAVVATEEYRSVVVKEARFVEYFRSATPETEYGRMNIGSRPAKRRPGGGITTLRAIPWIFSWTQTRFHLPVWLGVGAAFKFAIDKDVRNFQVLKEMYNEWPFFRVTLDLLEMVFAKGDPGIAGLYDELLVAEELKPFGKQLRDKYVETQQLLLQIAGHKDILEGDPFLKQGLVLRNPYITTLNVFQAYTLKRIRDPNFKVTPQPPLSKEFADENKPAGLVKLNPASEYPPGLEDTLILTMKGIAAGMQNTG", "test": "malate dehydrogenase coupled PEPC enzymatic assay, maize C4 PPC1 and engineered variants", "format": "biochemical", "conditions": "Kcat/Km", "text": "(§1) For both Arabidopsis C3 PPC1 (AtPPC1) and maize C4 PPC1 (ZmPPC1), the entire coding sequence for each was cloned into pET22b, which contains an amino-terminal 6×-HIS tag for protein purification, and expression was driven by the T7 promoter and lac operon. Relevant mutations were introduced by the Stratagene QuikChange mutagenesis kit using PCR amplification. Both wild type and mutant cDNA constructs were sequenced entirely following cloning into pet22b. Proteins were produced by growing transformed E. coli (BL21 CodonPlus) in autoinduction medium at 18° C. for 16 hours. Proteins were isolated by sonication of bacterial cells followed by passage over a nickel sepharose affinity column, elution with imidazole and separation on a GE SUPERDEX HILOAD 200 PG 16/60 all using an AKTA FPLC.\n(§2) Enzyme analysis was conducted in vitro using protein that was generated by expression in E. coli using the pET22b vector. For expression, pET22b constructs were transformed into E. coli BL21-DE3 codon plus RIL cells and grown at 37° C. in autoinduction media until reaching an OD=1 after which these were transferred to 18° C. for 18 hours. Samples were collected and lysed by sonication. Protein was purified by passage through a His-trap nickel affinity column on an Akta FPLC and then eluted with 400 mM imidazole. Partially purified protein was then separated on an FPLC equipped with a HiPrep S200 size exclusion column (16/60) after which collected sample was concentrated by centrifugation to a final concentration of 4 mg/ml in 50% glycerol. Samples were stored at −20° C.\n(§3) For enzymatic assays, a malate dehydrogenase coupled reaction was conducted with a range of substrate concentrations (0-7.5 mM phosphoenolpyruvate pyruvate) and a range of concentrations of allosteric inhibitor (0-50 mM malate). Assays were monitored using a Victor2 microplate reader at 25° C. Reactions consisted of […] PPC enzyme variants, 50 mM HEPES pH7.5, 10 mM MgCl2, 10 mM KHCO3 (carbonate substrate), 0.2 mM NADH, and 10 units/ml of malate dehydrogenase. Reaction time was 15 minutes and samples were measured on an ˜40 second interval. For measurement, which monitors loss of NADH, excitation wavelength was 340 nM and emission wavelength was 460 nM."}, "[2]": {"test_system": "Zea mays PPC1 (ZmPPC1, C4 PEPC)", "test": "malate dehydrogenase coupled PEPC enzymatic assay, maize C4 PPC1 and engineered variants", "format": "biochemical", "text": "as §1, §2, §3"}},
  "data": [
    {"molecule": "ZmPPC1 A651V: engineered Zea mays PPC1 with A651V substitution (A655V in SEQ ID NO:15) (protein) MASTKAPGPGEKHHSIDAQLRQLVPGKVSEDDKLIEYDALLVDRFLNILQDLHGPSLREFVQECYEVSADYEGKGDTTKLGELGAKLTGLAPADAILVASSILHMLNLANLAEEVQIAHRRRNSKLKKGGFADEGSATTESDIEETLKRLVSEVGKSPEEVFEALKNQTVDLVFTAHPTQSARRSLLQKNARIRNCLTQLNAKDITDDDKQELDEALQREIQAAFRTDEIRRAQPTPQDEMRYGMSYIHETVWKGVPKFLRRVDTALKNIGINERLPYNVSLIRFSSWMGGDRDGNPRVTPEVTRDVCLLARMMAANLYIDQIEELMFELSMWRCNDELRVRAEELHSSSGSKVTKYYIEFWKQIPPNEPYRVILGHVRDKLYNTRERARHLLASGVSEISAESSFTSIEEFLEPLELCYKSLCDCGDKAIADGSLLDLLRQVFTFGLSLVKLDIRQESERHTDVIDAITTHLGIGSYREWPEDKRQEWLLSELRGKRPLLPPDLPQTDEIADVIGAFHVLAELPPDSFGPYIISMATAPSDVLAVELLQRECGVRQPLPVVPLFERLADLQSAPASVERLFSVDWYMDRIKGKQQVMVGYSDSGKDAGRLSAAWQLYRAQEEMAQVAKRYGVKLTLFHGRGGTVGRGGGPTHLVILSQPPDTINGSIRVTVQGEVIEFCFGEEHLCFQTLQRFTAATLEHGMHPPVSPKPEWRKLMDEMAVVATEEYRSVVVKEARFVEYFRSATPETEYGRMNIGSRPAKRRPGGGITTLRAIPWIFSWTQTRFHLPVWLGVGAAFKFAIDKDVRNFQVLKEMYNEWPFFRVTLDLLEMVFAKGDPGIAGLYDELLVAEELKPFGKQLRDKYVETQQLLLQIAGHKDILEGDPFLKQGLVLRNPYITTLNVFQAYTLKRIRDPNFKVTPQPPLSKEFADENKPAGLVKLNPASEYPPGLEDTLILTMKGIAAGMQNTG", "values": [
      {"measurement": "increase in catalytic efficiency relative to wt ZmPPC1", "setting": "[1]", "value": "> 7", "unit": "fold"},
      {"measurement": "effects of the allosteric inhibitor malate relative to wt ZmPPC1", "setting": "[2]", "value": "greatly reduce"},
      {"measurement": "Km", "setting": "[2]; 0-7.5 mM phosphoenolpyruvate, 25° C, HEPES pH7.5, read-out: Km PEP", "value": "477 ± 42", "unit": "µM"},
      {"measurement": "Vmax", "setting": "[2]; 25° C, HEPES pH7.5", "value": "12.84 ± 0.89", "unit": "units/mg"},
      {"measurement": "effect of malate on enzyme", "setting": "[2]; at 50 mM malate", "value": "wholly unaffected"},
      {"measurement": "activity of C4 PEPC", "setting": "[2]; substitution introduced into maize C4 PEPC (ZmPPC1)", "value": "increased activity"}
    ]}
  ]
}
